Target: WNV (strain New York 1999), infectious virus (West Nile virus, strain New York 1999) (UniProt Q9Q6P4)
Assay: cell-based or functional assay

Substance: Tetra pHu-E16 (tetravalent molecule assembled from pHu-E16scFv-CH^1-3 and pHu-E16scFv-CL) (antibody)
- EC50, focus reduction neutralization assay (Vero cells): 3 ng/mL

Reference: US20170275639A1
